According to patent US20080200369A1 (SANFORD BURNHAM MEDICAL RESEARCH INSTITUTE, published 2008):

Molecular target: T1, [^35S]-tastin (UniProt Q12815 1-778, limits assumed, [^35S]-methionine labeled)
T1 construct: also called in vitro translated [^35S]-labeled tastin
T1 sequence (looked up): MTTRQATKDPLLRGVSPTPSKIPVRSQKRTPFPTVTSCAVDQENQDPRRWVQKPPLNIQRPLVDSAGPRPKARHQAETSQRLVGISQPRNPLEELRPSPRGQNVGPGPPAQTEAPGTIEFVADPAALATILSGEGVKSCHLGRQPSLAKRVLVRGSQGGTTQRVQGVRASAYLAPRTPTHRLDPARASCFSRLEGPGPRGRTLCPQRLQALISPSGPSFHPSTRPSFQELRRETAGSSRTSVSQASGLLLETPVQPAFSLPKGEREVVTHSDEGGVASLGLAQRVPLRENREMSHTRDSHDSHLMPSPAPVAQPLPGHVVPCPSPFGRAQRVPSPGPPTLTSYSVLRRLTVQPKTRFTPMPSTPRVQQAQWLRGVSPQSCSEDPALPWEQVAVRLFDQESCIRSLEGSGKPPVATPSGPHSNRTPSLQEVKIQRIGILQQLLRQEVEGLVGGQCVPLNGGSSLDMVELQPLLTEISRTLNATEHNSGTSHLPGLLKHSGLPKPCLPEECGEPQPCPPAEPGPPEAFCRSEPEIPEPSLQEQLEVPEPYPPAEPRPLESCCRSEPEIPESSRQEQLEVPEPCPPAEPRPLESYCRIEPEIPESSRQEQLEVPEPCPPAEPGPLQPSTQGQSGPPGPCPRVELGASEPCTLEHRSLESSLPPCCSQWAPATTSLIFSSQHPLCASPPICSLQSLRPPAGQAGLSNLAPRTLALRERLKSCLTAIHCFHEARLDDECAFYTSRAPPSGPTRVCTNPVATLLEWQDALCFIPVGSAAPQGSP
Experiment: GST pull-down of in vitro translated [^35S]-protein on glutathione beads, autoradiography (FIG. 7A)
Procedure: In vitro translated [³⁵S]-labeled trophinin, bystin or tastin was incubated with GST or GST-ErbB4 immobilized on glutathione beads. Bead-bound materials were visualized by autoradiography after gel electrophoresis. […] Bead-bound materials were visualized by autoradiography. Note that trophinin is captured by GSTErbB4 when bystin is present. […] HT-H cells treated with or without GWRQ peptide were subjected to immunoprecipitation with antiErbB4 antibody, followed by western blot analysis. Note that trophinin and bystin were co-immunoprecipitated with ErbB4 from cells not treated with GWRQ, whereas less trophinin was present in precipitates from GWRQ-treated cells.
A GST-fusion protein pull-down assay was carried out as described (Swaffield, J C, et al. 1996). Trophinin, bystin, and tastin proteins were produced as [³⁵S]-methionine labeled proteins using an vitro transcription and translation kit (TnT, Promega), according to the manufacturer's protocol. [³⁵S]-trophinin, [³⁵S]-bystin, and [³⁵S]-tastin were mixed individually with GSTErbB4 immobilized on glutathione beads in binding buffer (Swaffield, J C, et al. 1996) at 4° C. for 1 hour. After washing unbound materials with binding buffer, bead-bound material was eluted by boiling in SDS sample buffer. [³⁵S]-labeled proteins eluted were analyzed by SDS-PAGE followed by fluorography.

B1: GST-ErbB4 fusion protein (cytoplasmic domain of human ErbB4) (other, UniProt Q15303 676-1308, looked up)
chain: RRKSIKKKRALRRFLETELVEPLTPSGTAPNQAQLRILKETELKRVKVLGSGAFGTVYKGIWVPEGETVKIPVAIKILNETTGPKANVEFMDEALIMASMDHPHLVRLLGVCLSPTIQLVTQLMPHGCLLEYVHEHKDNIGSQLLLNWCVQIAKGMMYLEERRLVHRDLAARNVLVKSPNHVKITDFGLARLLEGDEKEYNADGGKMPIKWMALECIHYRKFTHQSDVWSYGVTIWELMTFGGKPYDGIPTREIPDLLEKGERLPQPPICTIDVYMVMVKCWMIDADSRPKFKELAAEFSRMARDPQRYLVIQGDDRMKLPSPNDSKFFQNLLDEEDLEDMMDAEEYLVPQAFNIPPPIYTSRARIDSNRSEIGHSPPPAYTPMSGNQFVYRDGGFAAEQGVSVPYRAPTSTIPEAPVAQGATAEIFDDSCCNGTLRKPVAPHVQEDSSTQRYSADPTVFAPERSPRGELDEEGYMTPMRDKPKQEYLNPVEENPFVSRRKNGDLQALDNPEYHNASNGPPKAEDEYVNEPLYLNTFANTLGKAEYLKNNILSMPEKAKKAFDNPDYWNHSLPPRSTLQHPDYLQEYSTKYFYKQNGRIRPIVAENPEYLSEFSLKPGTVLPPPPYRHRNTVV
notes: domain: cytoplasmic domain; Expressed in bacteria, immobilized on glutathione beads; Linker between GST and ErbB4 not described; not shown: glutathione S-transferase encoded by the vector pGEX-KG
  binding result: no binding
